Read-outs that look alike come from different tables or passages of the source.
Key:
[1] = biological target: IgG4 heavy chain CH3 (Homo sapiens) [IgG part: P01861]; details: cited from earlier work
[2] = biological target: hinge-deleted human IgG4 anti-epidermal growth factor receptor (EGFR) antibody (IgG4Δhinge), R409K variant (human); assay: native MS; variable-temperature ESI native MS (vT-ESI-MS); 2.5 uM antibody in 150 mM ammonium acetate pH 7.5; continuous ramp from 30 to 100 °C at 2 °C/min; full noncovalent antibody to two half antibodies
[3] = biological target: hinge-deleted human IgG4 anti-epidermal growth factor receptor (EGFR) antibody (IgG4Δhinge), L368A variant (human); assay: as above
[4] = biological target: hinge-deleted human IgG4 anti-epidermal growth factor receptor (EGFR) antibody (IgG4Δhinge), L368A variant (human); assay: as above; remark: listed apart in the source

Sequence of IgG4 heavy chain CH3 (P01861 218-328): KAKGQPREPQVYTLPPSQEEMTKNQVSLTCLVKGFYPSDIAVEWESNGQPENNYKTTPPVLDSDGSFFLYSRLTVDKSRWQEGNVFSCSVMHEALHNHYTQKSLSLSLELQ

Substance: IgG4 heavy chain CH3 (from UniProt P01861)
- Kd [1]: 49.7 nM

Substance: hinge-deleted human IgG4 anti-epidermal growth factor receptor (EGFR) antibody (IgG4Δhinge), R409K variant
- T1/2 (dissociation temperature of the full antibody into half antibodies) [2]: 77 °C

Substance: hinge-deleted human IgG4 anti-epidermal growth factor receptor (EGFR) antibody (IgG4Δhinge), L368A variant
- T1/2 (dissociation temperature of the full antibody into half antibodies) [3]: 53 °C
- T1/2 (dissociation temperature of the full antibody into half antibodies) [4]: 52 °C

— publication PMC12142670
